What was measured:
[1] = molecular target: Rnq1 preformed fibers (sonicated seed) (Saccharomyces cerevisiae) (UniProt P25367); assay: cell-based or functional assay
[2] = molecular target: NM, the N-terminal and middle region of Saccharomyces cerevisiae Sup35 (soluble, unpolymerized) (Saccharomyces cerevisiae) (UniProt P05453); assay: cell-based or functional assay
[3] = molecular target: biotinylated NM^K184C seed (fibers) (Saccharomyces cerevisiae) (UniProt P05453); assay: capture of biotinylated seed (50% w/w) on Streptavidin-coated Dynabeads, SDS wash, scintillation counting
Sequence of biotinylated NM^K184C seed (fibers) (Saccharomyces cerevisiae) (P05453 1-253 K184C): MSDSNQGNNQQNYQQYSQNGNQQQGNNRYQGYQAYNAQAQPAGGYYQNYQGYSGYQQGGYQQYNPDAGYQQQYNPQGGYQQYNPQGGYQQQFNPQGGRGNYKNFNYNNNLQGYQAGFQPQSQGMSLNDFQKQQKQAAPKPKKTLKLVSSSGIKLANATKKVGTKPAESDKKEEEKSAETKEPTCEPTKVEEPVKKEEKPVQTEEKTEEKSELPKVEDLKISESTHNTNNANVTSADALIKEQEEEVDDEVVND

Q: For “Rnq1 (purified recombinant, soluble) (from UniProt P25367 1-405)”, which lag time of Thioflavin T fluorescence with 2% preformed fibers [1] is on record?
A: The lag time of Thioflavin T fluorescence with 2% preformed fibers was 4.3 h.

Q: How did the inhibition of NM fibrillization, no nucleotide [2] turn out when “Hsp104 (yeast protein-remodeling factor, AAA+ family), His-tag removed (from UniProt P31539 1-908) (enzyme)” was run?
A: The inhibition of NM fibrillization, no nucleotide was 7.6 µM.

Q: What about the inhibition of NM fibrillization, with ADP [2] of the same substance?
A: The inhibition of NM fibrillization, with ADP was 3.1 µM.

Q: And the inhibition of NM fibrillization, with AMP-PNP [2]?
A: Its inhibition of NM fibrillization, with AMP-PNP is 0.2 µM.

Q: And the inhibition of NM fibrillization, with ATP hydrolysis [2]?
A: The inhibition of NM fibrillization, with ATP hydrolysis was 0.1 µM.

Q: For “soluble NM^T158C-iodo[1-14C]acetamide (from UniProt P05453 1-253)”, which fraction of seed-bound NM soluble in SDS at early time points [3] is on record?
A: The fraction of seed-bound NM soluble in SDS at early time points was 50%.

From patent US20090280480A1
